Measurements reported in patent publication US10000771B2, “Nuclear targeting sequences” (Yeda Research and Development Co. Ltd., priority 2007, dated 2018).

Legend:
[1] = tested on: CHO cells; assay: Microscopy of MEK1-GFP constructs (subcellular localization); format: cell-based
Procedure: FIGS. 14A-14R are photomicrographs illustrating that the NTS motif regulates MEK1 shuttling into the nucleus. CHO cells overexpressing WT-GFP-MEK1 (WT), AAA-GFP-MEK1 (AAA-MEK) and EPE-GFP-MEK1 (EPE-MEK) were starved for 16 hr and treated with LMB (5 ng/ml, 1 hr; LMB), LMB (5 ng/ml, 1 hr)+TPA (250 nM, 15 min; LMB+TPA) or left un treated (NT). Subsequently the cells were fixed, stained with DAPI and visualized by a fluorescent microscope.
Immunofluorescence Microscopy. Cells were fixed (30 min in 3% paraformaldehyde in PBS or 10 min with ice-cold methanol), followed by 5-min permeabilization with 0.2% Triton X-100 in PBS (23° C.). The fixed cells were sequentially incubated with the appropriate Abs (45 min) followed by rhodamine-conjugated secondary Abs (45 min) and DAPI. Slides were visualized using a fluorescence microscope (Nikon, Japan) at 400× magnifications.
Other proteins that translocate into the nucleus upon stimulation are the MEKs [H. Jaaro, H. Rubinfeld, T. Hanoch, R. Seger, Proc. Natl. Acad. Sci. USA 94, 3742 (1997)]. […] This TPT sequence was also shown to be phosphorylated upon cellular stimulation [S. Matsuda, Y. Gotoh, E. Nishida, J Biol Chem 268, 3277 (Feb. 15, 1993)], and to be involved in protein-protein interaction that can determine subcellular localization [A. Nantel, K. Mohammad-Ali, J. Sherk, B. I. Posner, D. Y. Thomas, J Biol Chem 273, 10475 (Apr. 24, 1998). […]

[2] = target: T1, Act-GST-ERK2 (Rattus norvegicus, UniProt P63086); assay: In vitro kinase assay with active GST-ERK2; format: biochemical; conditions: immunoprecipitated protein as substrate, relative to GFP-ERK2
T1 construct: made in house; host or cells: bacteria co-expressing active MEK1
T1 sequence (P63086 whole entry): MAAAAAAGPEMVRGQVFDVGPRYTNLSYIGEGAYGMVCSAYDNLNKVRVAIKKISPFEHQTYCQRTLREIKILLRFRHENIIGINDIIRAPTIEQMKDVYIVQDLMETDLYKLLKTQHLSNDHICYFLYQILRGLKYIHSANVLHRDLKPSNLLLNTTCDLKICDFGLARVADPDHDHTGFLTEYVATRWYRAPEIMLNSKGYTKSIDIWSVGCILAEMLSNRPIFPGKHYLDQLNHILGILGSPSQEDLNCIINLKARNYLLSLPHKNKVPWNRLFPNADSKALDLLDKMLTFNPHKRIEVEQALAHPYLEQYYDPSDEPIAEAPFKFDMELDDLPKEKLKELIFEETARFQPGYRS
Procedure: (§1) FIGS. 4A-4I are autoradiographs characterizing SPS phosphorylation using an Ab to the phosphorylated SPS domain. FIG. 4A illustrates an elevation of pSPS detection upon stimulation. COS cells were transfected with WT-GFP-ERK2. Twenty-four hr after transfection, the cells were serum-starved for 16 hr and subsequently treated with the general stimulator VOOH (V, 100 μM Na3VO4 and 200 μM H2O2, 15 min), TPA (T, 250 nM, 15 min), EGF (E, 50 ng/ml for 15 min), or left untreated (NT). The GFP-ERK2 was immunoprecipitated with anti GFP Ab, extensively washed, and the IP was then subjected to Western blotting with anti phospho SPS-ERK (αphoSPS-ERK) and anti general ERK (αgen-ERK) Abs. FIG. 4B is a time course of SPS phosphorylation. […] SPS phosphorylation was detected using the anti pSPS Abs, and this was compared to the amount of genral ERKs detected by αgERK. […] SPS-phosphorylation was detected using αpSPS and αgERK Abs. […] The phosphorylation (^32P-ERK2) of ERK and its mutants was detected by autoradiography. […]
Some protein kinases downstream of MEKs that may be involved in the SPS phosphorylation are ERKs themselves (autophosphorylation) as their consensus phosphorylation site includes Ser/Thr followed by a Pro (Yoon and Seger, 2006, Growth Factors, 24, 21-44). […] As expected, ^32P incorporation to GFP-ERK2 was detected mainly when this protein was incubated with Act-ERK2. […]

[3] = tested on: SPS domain; assay: SPS phosphorylation detected by anti pSPS Ab Western blot; format: cell-based; conditions: COS7 cells, stimulated with VOOH, TPA, EGF or TGFβ, immunoprecipitation and Western blot
Procedure: as §1, with “phosphorylation. COS7 cells overexpressing WT-GFP-ERK2 were serum starved followed by EGF stimulation for the indicated time points. The lysates were then subjected to Western blot analysis as in FIG. 4A.” for “phosphorylation.”
FIG. 9B is an autoradiograph illustrating that stimulation elevates pSPS phosphorylation of 2GFP-SPS construct. […] The total amount of immunoprecipitated 2GFP-SPS was detected with αGFP Ab. […]

Molecule	nuclear accumulation after TPA stimulation ([1]; LMB 5 ng/ml + TPA 250 nM, 15 min)	nuclear translocation after leptomycin B ([1]; LMB 5 ng/ml, 1 hr)	reduction of phosphorylation (32P incorporation) by Act-ERK2 [2]	SPS phosphorylation upon stimulation (anti pSPS Ab recognition) [3]
AAA-MEK1: GFP-MEK1 with residues 386-8 (TPT) replaced with Ala (protein, UniProt Q02750 1-393, looked up, variant T386A P387A T388A, GFP fusion, GFP-MEK1 with residues 386-8 (TPT) replaced with Ala) Dual specificity …: MPKKKPTPIQLNPAPDGSAVNGTSSAETNLEALQKKLEELELDEQQRKRLEAFLTQKQKVGELKDDDFEKISELGAGNGGVVFKVSHKPSGLVMARKLIHLEIKPAIRNQIIRELQVLHECNSPYIVGFYGAFYSDGEISICMEHMDGGSLDQVLKKAGRIPEQILGKVSIAVIKGLTYLREKHKIMHRDVKPSNILVNSRGEIKLCDFGVSGQLIDSMANSFVGTRSYMSPERLQGTHYSVQSDIWSMGLSLVEMAVGRYPIPPPDAKELELMFGCQVEGDAAETPPRPRTPGRPLSSYGMDSRPPMAIFELLDYIVNEPPPKLPSGVFSLEFQDFVNKCLIKNPAERADLKQLMVHAFIKRSDAEEVDFAGWLCSTIGLNQPSAAAHAAGV	localized in the cytoplasm	abrogated	–	–
TEY-AAA: TEY mutated ERK2 that does not contain phosphates in this site (protein, left off: large carriers) MAAAAAAGPEMVRGQVFDVGPRYTNLSYIGEGAYGMVCSAYDNLNKVRVAIKKISPFEHQTYCQRTLREIKILLRFRHENIIGINDIIRAPTIEQMKDVYIVQDLMETDLYKLLKTQHLSNDHICYFLYQILRGLKYIHSANVLHRDLKPSNLLLNTTCDLKICDFGLARVADPDHDHTGFLAAAVATRWYRAPEIMLNSKGYTKSIDIWSVGCILAEMLSNRPIFPGKHYLDQLNHILGILGSPSQEDLNCIINLKARNYLLSLPHKNKVPWNRLFPNADSKALDLLDKMLTFNPHKRIEVEQALAHPYLEQYYDPSDEPIAEAPFKFDMELDDLPKEKLKELIFEETARFQPGYRS	–	–	~25%	can still be recognize by the anti phosphoSPS Ab upon stimulation
